Patent US20060094663A1
Where no end group is shown, it is not given here. [ ]: non-standard residue; d: D form. I2aa = indolizidin-2-one amino acid (2-oxo-3-amino-azabicyclo[4.3.0]nonane-9-carboxylic acid), a dipeptide surrogate; dOrn = NCCC[C@@H](N)C(=O)O

Key:
[1] = biological target: IL-1R/IL-1RacP receptor (cells or tissue whose species is not stated); test: cell-based or functional assay
[2] = biological target: IL-1R/IL-1RacP receptor on porcine cells and vessels (porcine (piglet)); test: cell-based or functional assay

Chain of IL-1R/IL-1RacP receptor (cells or tissue whose species is not stated) (P14778 whole entry, chain 1 of 2): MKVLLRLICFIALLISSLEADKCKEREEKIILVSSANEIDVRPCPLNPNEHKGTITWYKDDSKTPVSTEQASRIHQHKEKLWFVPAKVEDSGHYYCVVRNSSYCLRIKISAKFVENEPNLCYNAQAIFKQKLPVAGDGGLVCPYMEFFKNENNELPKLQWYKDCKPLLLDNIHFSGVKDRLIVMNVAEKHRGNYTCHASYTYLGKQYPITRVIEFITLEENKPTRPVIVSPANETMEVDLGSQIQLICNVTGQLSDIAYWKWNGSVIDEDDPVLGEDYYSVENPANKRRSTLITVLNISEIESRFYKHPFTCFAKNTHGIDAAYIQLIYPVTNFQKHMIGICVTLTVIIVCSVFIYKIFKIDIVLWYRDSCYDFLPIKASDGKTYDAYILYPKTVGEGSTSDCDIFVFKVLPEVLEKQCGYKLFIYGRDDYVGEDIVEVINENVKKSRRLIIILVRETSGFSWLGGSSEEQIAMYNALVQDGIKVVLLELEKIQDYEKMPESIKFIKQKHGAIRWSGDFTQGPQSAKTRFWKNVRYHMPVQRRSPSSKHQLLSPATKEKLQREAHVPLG
Chain of IL-1R/IL-1RacP receptor (cells or tissue whose species is not stated) (Q9NPH3 whole entry, chain 2 of 2, further chain): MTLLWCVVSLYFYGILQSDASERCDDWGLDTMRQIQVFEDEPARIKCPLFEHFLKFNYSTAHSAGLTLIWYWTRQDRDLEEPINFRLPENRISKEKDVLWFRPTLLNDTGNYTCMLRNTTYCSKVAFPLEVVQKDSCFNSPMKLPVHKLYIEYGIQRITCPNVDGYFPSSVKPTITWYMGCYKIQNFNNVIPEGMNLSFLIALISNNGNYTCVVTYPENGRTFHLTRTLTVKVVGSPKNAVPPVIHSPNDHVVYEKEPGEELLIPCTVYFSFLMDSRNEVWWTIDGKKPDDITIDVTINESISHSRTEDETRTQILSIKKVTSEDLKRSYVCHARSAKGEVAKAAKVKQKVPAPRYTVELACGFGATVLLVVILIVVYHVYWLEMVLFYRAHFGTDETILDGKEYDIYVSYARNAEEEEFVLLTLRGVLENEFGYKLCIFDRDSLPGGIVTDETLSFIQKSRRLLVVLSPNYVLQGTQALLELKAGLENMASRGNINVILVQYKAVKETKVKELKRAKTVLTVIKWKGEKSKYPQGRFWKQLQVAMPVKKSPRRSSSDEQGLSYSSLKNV

IC50 (FIG. 26; assay not given) [1]	efficacy (FIG. 26; assay not given) [1]	IC50, IL-1-induced PGE2 synthesis, endothelial cells [2]	fold potency against API-101.107, IL-1-induced PGE2 synthesis, endothelial cells [2]	activity (FIG. 26; assay not given) [1]	Binder
2400 nM	100%				[dR][dY]X[dE][dL] (not fully specified (residue 3); printed as ry[R-I2aa]el) [TTI-101.124]
0.09 nM	100%				[dOrn][dY]X[dE][dL][dA] (not fully specified (residue 3); printed as (D-orn)y[R-I2aa]ela) [TTI-101.125]
		0.0002 nM	10 fold	10 pM	[dR][dY][I2aa][dE][dL][dA]-NH2 [API-101.110]
